The target of the assay is T1, His-IRSp53 (UniProt Q9UQB8 1-552).
T1 sequence (looked up): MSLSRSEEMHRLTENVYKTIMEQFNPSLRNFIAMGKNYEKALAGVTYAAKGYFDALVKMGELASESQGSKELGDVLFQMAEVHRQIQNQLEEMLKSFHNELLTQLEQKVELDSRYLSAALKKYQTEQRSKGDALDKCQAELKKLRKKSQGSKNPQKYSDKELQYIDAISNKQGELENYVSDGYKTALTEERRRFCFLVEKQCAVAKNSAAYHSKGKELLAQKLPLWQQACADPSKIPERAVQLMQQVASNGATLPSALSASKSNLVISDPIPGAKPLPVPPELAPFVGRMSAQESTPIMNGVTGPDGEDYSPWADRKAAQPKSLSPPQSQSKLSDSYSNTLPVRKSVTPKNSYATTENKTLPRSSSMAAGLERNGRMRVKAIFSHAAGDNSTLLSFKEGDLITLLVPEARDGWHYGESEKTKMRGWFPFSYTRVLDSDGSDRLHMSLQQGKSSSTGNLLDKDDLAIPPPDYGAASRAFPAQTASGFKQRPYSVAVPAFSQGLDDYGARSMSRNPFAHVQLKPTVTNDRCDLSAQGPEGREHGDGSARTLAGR
Briefly: far-Western, overlay or dot blot; 10 pmoles of His-IRSp53, GST-IRSp53-SH3 or BSA spotted onto nitrocellulose, incubated with increasing concentrations of purified VASP; anti-VASP immunoblot; fraction bound against total VASP; apparent dissociation constant. As to conditions: both partners purified. Background: A western blot detects proteins with antibodies after separation by electrophoresis.

B1: VASP, recombinant, cleaved from GST (natural protein, human, UniProt P50552 1-380, looked up)
chain: MSETVICSSRATVMLYDDGNKRWLPAGTGPQAFSRVQIYHNPTANSFRVVGRKMQPDQQVVINCAIVRGVKYNQATPNFHQWRDARQVWGLNFGSKEDAAQFAAGMASALEALEGGGPPPPPALPTWSVPNGPSPEEVEQQKRQQPGPSEHIERRVSNAGGPPAPPAGGPPPPPGPPPPPGPPPPPGLPPSGVPAAAHGAGGGPPPAPPLPAAQGPGGGGAGAPGLAAAIAGAKLRKVSKQEEASGGPTAPKAESGRSGGGGLMEEMNAMLARRRKATQVGEKTPKDESANQEEPEARVPAQSESVRRPWEKNSTTLPRMKSSSSVTTSETQPCTPSSSDYSDLQRVKQELLEEVKKELQKVKEEIIEAFVQELRKRGSP
notes: also called purified VASP; recombinant human VASP
Consider B1, for which the Kd is 12.5 nM.
